Data: paper PMC12702981, “Population pharmacokinetics of efpeglenatide in individuals with obesity and with type 2 diabetes” (Frontiers in Pharmacology, 2025)
Marks after values point to notes of the source that are not given here.

Key:
[1] = ref Geiser et al., 2016; cited from earlier work
Source text: This finding is aligned with the pharmacokinetic properties of Fc-fusion proteins, in which neonatal Fc receptor (FcRn)-mediated recycling limits proteolytic catabolism and prolongs systemic residence ([Richter and Jacobsen, 2014]).

[2] = human, in vivo
Description: The population PK analysis was performed based on pooled data from one phase 1 and five phase 2 studies of efpeglenatide. […] Dosing regimens ranged from once weekly (QW) to every other week (Q2W) and once monthly (QM) subcutaneous administration.
The pooled dataset comprised six clinical studies (five studies in patients with T2DM and one study in obesity). A total of 3,596 plasma efpeglenatide concentration measurement were collected from 498 subjects across six clinical studies at prespecified time points.
All samples were analyzed at certified laboratories using validated analytical method. Serum concentrations of efpeglenatide were quantified using a validated Enzyme-Linked Immunosorbent Assay (ELISA) method.
For the PK analysis, 3,316 post-dose plasma concentrations above the lower limit of quantification (LLOQ) were used in the model estimation. All pre-dose concentrations before the first administration were excluded from the dataset. Post-dose samples below the limit of quantification (BLQ) were treated as missing (i.e., not included in the analysis). In total, 117 pre-dose samples (3.25%) and 153 post-dose samples (4.0%) were BLQ.
The base PK model evaluation was begun with a one-compartment disposition model with first-order elimination, with additional refinement to better characterize the absorption phase. […] The first one of the two divided doses was described as the first order absorption after bolus doses into depot compartment, capturing the first peak during the absorption phase. The second part of the dose was introduced to describe the second peak with time delay during absorption phase, which was described using a transit compartment model ([Savic et al., 2007]). […] After the absorption model was established, various compartment models were evaluated.
The transit compartment model describes the delay in absorption as the sequential passage of the drug through a chain of transit compartments, each connected by a first-order transit rate constant (Ktr). The number of transit compartments (n) and the mean transit time (MTT) were estimated from the data, with Ktr calculated as (n+1)/MTT. Drug exiting the final transit compartment entered the absorption compartment and was transferred to the central compartment via first-order absorption, as described by Equations 1–3.
The amount of drug administered subcutaneously (Asc) in the depot, central compartment (Ac) and peripheral compartment (Ap) were described using the following differential Equations 4–6: dAsc/dt=Dose·BIOA1+Dose·BIOA2·Ktr·t^n·e^−Ktr·t/2π·n^n+0.5·e^−n−ka·Asc (4) dAc/dt=ka·Asc−Ac/Vc·CL−Ac/Vc·Q+Ap/Vp·Q (5) dAp/dt=Ac/Vc·Q−Ap/Vp·Q (6)
To confine the estimated fraction values to the range between 0 and 1 and to allow implementation of interindividual variability, a logit transformation was applied. BIOA1 and BIOA2 represent the fractions of the administered dose entering the depot compartment via the bolus administration route and the delayed absorption route, respectively. The transformation was defined as shown in Equation 7 ([Adedokun et al., 2020]): BIOA1=e^BIOF/1+e^BIOF,BIOA2=1/1+e^BIOF (7) where BIOF is an unbounded parameter ( −∞∼∞ ) representing the logit-transformed value of BIOA1, and BIOA2 = 1-BIOA1
The population PK modeling analysis was performed using NONMEM version 7.5 (ICON Development Solutions, Hanover, MD, United States). The first-order conditional estimation method with interaction (FOCEI) was used to approximate the marginal likelihood and facilitate estimation of population model parameters.

[3] = ref Yoon et al., 2020; cited from earlier work
Source text: Gastrointestinal (GI) adverse events are the most frequent class-related tolerability issues with GLP-1 receptor agonists, and stepwise dose-escalation regimens are commonly used to mitigate these events ([U.S. Food and Drug Administration, 2014]; [Davies et al., 2022]). […] Efpeglenatide has shown an adverse event profile consistent with this drug class ([Yoon et al., 2020]; [Gerstein et al., 2021]). The model-derived effective half- ...

[4] = patients with T2DM; ref Gerstein et al., 2021; cited from earlier work

| Substance | CL, clearance [1] [L/h] | BIOA1, dose fraction absorbed via the first-order pathway [2] | BIOA2, dose fraction absorbed via the transit-compartment pathway [2] | BIOF, logit parameter expressing the fraction of dose absorbed via the first-order and transit pathway [2] | CL/F in T2DM, clearance for patients with T2DM [2] | CL/F in obesity, clearance for obesity [2] | Covariate effect (θ) of body weight on CL/F [2] | Covariate effect (θ) of body weight on ka [2] | Expected time to steady state [2] | Higher clearance (CL/F) in T2DM than in obesity [2] [%] | MTT, mean transit time [2] | Model-derived effective half-life [2] [h] | N, number of transit compartments [2] | VSS [2] | Q/F, inter-compartment clearance ([2]; sc) | VC/F, volume of the central compartment ([2]; sc) | VP/F, volume of the peripheral compartment ([2]; sc) | ka, absorption rate constant ([2]; sc) | Clinically reported half-life [3] [h] | Weight loss [4] |
| --- | --- | --- | --- | --- | --- | --- | --- | --- | --- | --- | --- | --- | --- | --- | --- | --- | --- | --- | --- | --- |
| dulaglutide: another Fc-fusion GLP-1 receptor agonist | 0.059 | – | – | – | – | – | – | – | – | – | – | – | – | – | – | – | – | – | – | – |
| efpeglenatide | – | 0.248 ^a | 0.752 ^b | −1.11 [27.59] | 0.044 [1.50] L/h | 0.032 [1.79] L/h | 0.964 [6.75] | −0.927 [14.24] | ≈ 4 weeks | 38 | 2.680 [13.47] hour | 140 to 170 | 5.520 [22.28] | ≈ 6.8 L | 0.073 [11.14] L/h | 2.80 [7.39] L | 3.96 [6.57] L | 0.006 [4.33] 1/h | 134 to 180 | 6%–7% |
